# Laboratory results from article PMC3335016, “Analysis of the Nse3/MAGE-Binding Domain of the Nse4/EID Family Proteins” (PLoS ONE, 2012).
# B1: EID2 WT peptide (aa 197-217) [modified: biotin, linked via the SGSG spacer; biotin, linked via the SGSG spacer] [human] / His-S-MAGEC2(129-339) [human] (parent complex)
# chain 1: QRNPHRVDLDILTFTIALTAS
# chain 2: GLPDSESSFTYTLDEKVAELVEFLLLKYEAEEPVTEAEMLMIVIKYKDYFPVILKRAREFMELLFGLALIEVGPDHFCVFANTVGLTDEGSDDEGMPENSLLIIILSVIFIKGNCASEEVIWEVLNAVGVYAGREHFVYGEPRELLTKVWVQGHYLEYREVPHSSPPYYEFLWGPRAHSESIKKKVLEFLAKLNNTVPSSFPSWYKDALKD
# Variants of: B1
# Assay: PEPSCAN-ELISA; parent: 100; read off a plot
row,Variant,percent of parent [%]
1,chain 1 T15A,~67
2,chain 1 T13A,~46
3,chain 1 V7A,~34
4,chain 1 N3A,~58

# Next, values leading:
row,percent of parent [%],Variant
1,~86,chain 1 D8A
2,~38,chain 1 H5A
3,~45,chain 1 P4A
